Experimental data published in the RNAGym collection of RNA variant scans (doi:10.7554/elife.90254).

B1: OR4K15 (parent)
chain: GUUAACGGUCAUAGGCCAUGGAAACUAGGAGCACCAUUUCGCUGCCAGUGAAGAAAUGAACAAAGAAAAUCUGGGCCAGGCAGGCAUCAAAAGAAAUAGUCUUGCGCUCAACCAGAAAGUCUGUAAUCAUUUUAAGGGUA

Variants of: B1
Test: self-cleavage, relative activity (ratio to wild type); higher = more cleavage; in vitro, sequencing; the parent is a self-cleaving ribozyme

Variant | self-cleavage
GUUAACGGUCAUAGGCCAUGGAAACUAGGAGCACCAUUACGCUGCCAGUGAAGAAAUGAACAAAGAAAAUCUGGGCCAGGCAGGCAUCAAAAGAAAUAGUCUUGCGCUCAACCAGAAAGUCUGUAAUCCUUUUAAGGGUA [U39A A129C] | 1.24
GUUAACGGUCAUAGGCCAUGGAAACUAGGAGCACCAUUACGCUGCCAGAGAAGAAAUGAACAAAGAAAAUCUGGGCCAGGCAGGCAUCAAAAGAAAUAGUCUUGCGCUCAACCAGAAAGUCUGUAAUCAUUUUAAGGGUA [U39A U49A] | 1.4
GUUAACGGUCAUAGGCCAUGGAAACUAGGAGCACCAUUACGCUGCCAGUGAAGAAAUGAACAAAGAAAAUCUGGGCCAGGCAGGCAUCAAAAGAAAUAGUCUUGCGCUCAACCAGAAAGUCUGUAAUCAUUUCAAGGGUA [U39A U133C] | 1.76
GUUAACGGUCAUAGGCCAUGGAAACUAGGAGCACCAUUACGCUGCCAGUGAAGAAAUGAACAAAGAAAAUCUGGGCCGGGCAGGCAUCAAAAGAAAUAGUCUUGCGCUCAACCAGAAAGUCUGUAAUCAUUUUAAGGGUA [U39A A78G] | 0.35
GUUAACGGUCAUAGGCCAUGGAAACUAGGAGCACCAUUACGCUGCCAGUGAAGAAAUGAACAAAGAAAAUCUGGGCCCGGCAGGCAUCAAAAGAAAUAGUCUUGCGCUCAACCAGAAAGUCUGUAAUCAUUUUAAGGGUA [U39A A78C] | 0.23
GUUAACGGUCAUAGGCCAUGGAAACUAGGAGCACCAUUACGCUGCCAGUGAAGAAAUGAACAAAGAAAAUCUGGGCCUGGCAGGCAUCAAAAGAAAUAGUCUUGCGCUCAACCAGAAAGUCUGUAAUCAUUUUAAGGGUA [U39A A78U] | 0.44
GUUAACGGUCAUAGGCCAUGGAAACUAGGAGCACCAUUCCGCUGCCAGUGAAGAAAUGAACAAAGAAAAUCUGGGCCAGGCAGGCAUCAAAAGAAAUAGUCUUGCGCUCAACCAGAAAGUCUGUAAUCAUUUUAAGGGUA [U39C] | 1.34
GUUAACGGUCAUAGGCCAUGGAAACUAGGAGCACCAUUACGCUGCCAGUGAAGAAAUGAACAAAGAAAAUCUGGGCCAGGCAGGCAUCAAGAGAAAUAGUCUUGCGCUCAACCAGAAAGUCUGUAAUCAUUUUAAGGGUA [U39A A91G] | 1.56
GUUAACGGUCAUAGGCCAUGGAAACUAGGAGCACCAUUCCGCUGCCCGUGAAGAAAUGAACAAAGAAAAUCUGGGCCAGGCAGGCAUCAAAAGAAAUAGUCUUGCGCUCAACCAGAAAGUCUGUAAUCAUUUUAAGGGUA [U39C A47C] | 1.63
GUUAACGGUCAUAGGCCAUGGAAACUAGGAGCACCAUUACGCUGCCAGUGAAGAAAUGAACAAAGAAAAUCUGGGCCAGGCAGGGAUCAAAAGAAAUAGUCUUGCGCUCAACCAGAAAGUCUGUAAUCAUUUUAAGGGUA [U39A C85G] | 1.07
GUUAACGGUCAUAGGCCAUGGAAACUAGGAGCACCAUUACGCUGCCAGUGAAGAAAUGAACAAAGAAAAUCUGGGCCAGGCAGGCAUCAAAAGAAAUAGUCUUGCGCUCAACCAGAAAGUCUGUAAUCAUUUUAAGAGUA [U39A G137A] | 1.8
GUUAACGGUCAUAGGCCAUGGAAACUAGGAGCACCAUUACGCUGCCAGUGAAGAAAUGAACAAAGAAAAUCUGGGCCAGGCAGGCAUCAAAAGAAAUAGUCUUGCGCUCAACCAGAAAGUCUGUAAUCAUCUUAAGGGUA [U39A U131C] | 1.59
GUUAACGGUCAUAGGCCAUGGAAACUAGGAGCACCAUUACGCUGCCAGUGAAGAAAUGAACAAAGAAAAUCUGGGCCAGGCAGGCAUCAAAAGAAUUAGUCUUGCGCUCAACCAGAAAGUCUGUAAUCAUUUUAAGGGUA [U39A A96U] | 1.71
GUUAACGGUCAUAGGCCAUGGAAACUAGGAGCACCAUUACGCUGCCAGUGAAGAAAUGAACAAAGAAAAUCUGGGCCAGGCAGGCCUCAAAAGAAAUAGUCUUGCGCUCAACCAGAAAGUCUGUAAUCAUUUUAAGGGUA [U39A A86C] | 1.21
GUUAACGGUCAUAGGCCAUGGAAACUAGGAGCACCAUUACGCUGCCAGUGAAGAAAUGAACAAAGAAAAUCGGGGCCAGGCAGGCAUCAAAAGAAAUAGUCUUGCGCUCAACCAGAAAGUCUGUAAUCAUUUUAAGGGUA [U39A U72G] | 0.3
GUUAACGGUCAUAGGCCAUGGAAACUAGGAGCACCAUUACGCUGCCAGUGAAGAAACGAACAAAGAAAAUCUGGGCCAGGCAGGCAUCAAAAGAAAUAGUCUUGCGCUCAACCAGAAAGUCUGUAAUCAUUUUAAGGGUA [U39A U57C] | 0.73
GUUAACGGUCAUAGGCCAUGGAAACUAGGAGCACCAUUACGCUGCCAGUGAAGAAAUGAACAAAGAAAAUCUGGGCCAGGCAGGCAUCAAAAGCAAUAGUCUUGCGCUCAACCAGAAAGUCUGUAAUCAUUUUAAGGGUA [U39A A94C] | 1.87
GUUAACGGUCAUAGGCCAUGGAAACUAGGAGCACCAUUACGCUGCCAGUGAAGAAAUGAACAAAGAAAAUCUGGGCCAGGCAGGCAUCAAAAGGAAUAGUCUUGCGCUCAACCAGAAAGUCUGUAAUCAUUUUAAGGGUA [U39A A94G] | 1.47
GUUAACGGUCAUAGGCCAUGGAAACUAGGAGCACCAUUACGCUGCCAGUGAAGAAAUGAACAAAGAAAAUCUGGGCCAGGCUGGCAUCAAAAGAAAUAGUCUUGCGCUCAACCAGAAAGUCUGUAAUCAUUUUAAGGGUA [U39A A82U] | 0.28
GUUAACGGUCAUAGGCCAUGGAAACUAGGAGCACCAUUACGCUGCCAGUGAAGAAAUGAACAAAGAAAAUCUGGGCCAGGCGGGCAUCAAAAGAAAUAGUCUUGCGCUCAACCAGAAAGUCUGUAAUCAUUUUAAGGGUA [U39A A82G] | 0.44
GUUAACGGUCAUAGGCCAUGGAAACUAGGAGCACCAUUACGCUGCCAGUGAAGAAAUGAACAAAGAAAAUCUGGGCCAGGCAGGCAUCAAAGGAAAUAGUCUUGCGCUCAACCAGAAAGUCUGUAAUCAUUUUAAGGGUA [U39A A92G] | 0.92

Variant | self-cleavage
GUUAACGGUCAUAGGCCAUGGAAACUAGGAGCACCAUUACGCUGCCAGUGAAGAAAUGAACAAAGAAAAUCUGGGCCAGGCAGGCAUCAAAAGAAAUAGUCUUGCGCUCAACCAGAAAGUCUGUAACCAUUUUAAGGGUA [U39A U127C] | 0.28
GUUAACGGUCAUAGGCCAUGGAAACUAGGAGCACCAUUACGCUGCCAGUGAAGAAAUGAACAAAGAAAAUCUGGGCCAGGCAGGCAUCAAAAGAAAUAGUCUUGCGCUCAACCAGAGAGUCUGUAAUCAUUUUAAGGGUA [U39A A117G] | 2.24
GUUAACGGUCAUAGGCCAUGGAAACUAGGAGCACCAUUACGCUGCCAGUGAAGAAAUGAACAAAGAAAAUCUGGGCCAGGCAGGCAUCAAAAGAAAUAGUCUUGCGCUCAACCAGAAAGUCUGUGAUCAUUUUAAGGGUA [U39A A125G] | 1.01
GUUAACGGUCAUAGGCCAUGGAAACUAGGAGCACCAUUACGCUGCCAGUGAAGAAAUGAACAAAGAAAAUCUGGGCCAGGCAGGCAUCAAAAGAAAUAGUCUUGCGCUUAACCAGAAAGUCUGUAAUCAUUUUAAGGGUA [U39A C109U] | 0.37
GUUAACGGUCAUAGGCCAUGGAAACUAGGAGCACCAUUACGCUGCCAGUGAAGAAAUGAACAAAGAAAAUCUGGGCCAGGCAGGCAUCAAAAGAAAUAGUCUUGCGCUCAACCAGAAGGUCUGUAAUCAUUUUAAGGGUA [U39A A118G] | 1.28
GUUAACGGUCAUAGGCCAUGGAAACUAGGAGCACCAUUACGCUGCCAGUGAAGAAAUGAACAAAGAAAAUCUGGGCCAGGCAGGCAUCAAAAGAAAUAGUCUUGCGCUCAACCAGGAAGUCUGUAAUCAUUUUAAGGGUA [U39A A116G] | 1.2
GUUAACGGUCAUAGGCCAUGGAAACUAGGAGCACCAUUACGCUGCCAGUGAAGAAAUGAACAAAGAAAAUCUGGGCCAGGCAGGCACCAAAAGAAAUAGUCUUGCGCUCAACCAGAAAGUCUGUAAUCAUUUUAAGGGUA [U39A U87C] | 1.53
GUUAACGGUCAUAGGCCAUGGAAACUAGGAGCACCAUUACGCUGCCAGUGAAGAAAUGAACAAAGAAAAUCUGGGCCAGGCAGGCAUCAAAAGAAAUAGUCUUGCGCUCAACCAGAAAGUCUGUAAUCAUUUUUAGGGUA [U39A A134U] | 2.44
GUUAACGGUCAUAGGCCAUGGAAACUAGGAGCACCAUUACGCUGCCAGUGAAGAAAUGAACAAAGAAAAUCUGGGCCAGGCAGGCAUCAAAAGAAAUAGUCUUGCGCUCAACCAGAAAGUCUGUAAUCAUUCUAAGGGUA [U39A U132C] | 1.97
GUUAACGGUCAUAGGCCAUGGAAACUAGGAGCACCAUUACGCUGCCAGUGAAGAAAUGAACAAAGAAAAUCUGGGCCAGGCAGGCAUCAAAAGAAAUAGUCUUGCGCUCAACCAGAAAGCCUGUAAUCAUUUUAAGGGUA [U39A U120C] | 0.95
GUUAACGGUCAUAGGCCAUGGAAACUAGGAGCACCAUUACGCUGCCAGUGAAGAAAUGAACAAAGAAAAUCUGGGCCAGGCAGGCAUCAAAAGAAAUAGUCUUGCGCUCAACCAGAAAGACUGUAAUCAUUUUAAGGGUA [U39A U120A] | 1.92
GUUAACGGUCAUAGGCCAUGGAAACUAGGAGCACCAUUACGCUGCCAGUGAAGAAAUGAACAAAGAAAGUCUGGGCCAGGCAGGCAUCAAAAGAAAUAGUCUUGCGCUCAACCAGAAAGUCUGUAAUCAUUUUAAGGGUA [U39A A69G] | 1.5
GUUAACGGUCAUAGGCCAUGGAAACUAGGAGCACCAUUACGCUGCCAGUGAAGAAAUGAACAAAGAAAUUCUGGGCCAGGCAGGCAUCAAAAGAAAUAGUCUUGCGCUCAACCAGAAAGUCUGUAAUCAUUUUAAGGGUA [U39A A69U] | 0.83
GUUAACGGUCAUAGGCCAUGGAAACUAGGAGCACCAUUACGCUGCCAGUGAAGAAAUGAACAAAGAAAAUCUGGGCCAGGCAGGCAUCAAAAGAAAUAGUCUUACGCUCAACCAGAAAGUCUGUAAUCAUUUUAAGGGUA [U39A G104A] | 0.03
GUUAACGGUCAUAGGCCAUGGAAACUAGGAGCACCAUUACGCUGCCAGUGAAGAAAUGAACAAAGAAAAUCUGGGCCAGGCAGGCAUCAAAAGAAAUAGUCUUGCGCCCAACCAGAAAGUCUGUAAUCAUUUUAAGGGUA [U39A U108C] | 0.02
GUUAACGGUCAUAGGCCAUGGAAACUAGGAGCACCAUUACGCUGCCAGUGAAGAAAUGAACAAAGAAAAUCUGGGCCAGGCAGGCAUCAAAAGAAAUGGUCUUGCGCUCAACCAGAAAGUCUGUAAUCAUUUUAAGGGUA [U39A A98G] | 1.11
GUUAACGGUCAUAGGCCAUGGAAACUAGGAGCACCAUUACGCUGCCAGUGAAGAAAUGAACAAAGAAAAUCUGGGCCAGGCAGGCAUCAAAAGAAAUAGUCUUGCGCUCAACCAGAAAGUCUGUAGUCAUUUUAAGGGUA [U39A A126G] | 1.59
GUUAACGGUCAUAGGCCAUGGAAACUAGGAGCACCAUUACGCUGCCAGUGAAGAAAUGAACAAAGAAAAUCUGGGCCAGGCAGGCAUCAAAAGAAAUAGUCUUGCGCUCAACCAGAAAGUCUGUACUCAUUUUAAGGGUA [U39A A126C] | 0.87
GUUAACGGUCAUAGGCCAUGGAAACUAGGAGCACCAUUACGCUGCCAGUGAAGAAAUGAACAAAGAAAAUCUGGGCCAGGCAGGCAUCAAAAGAAAUAGACUUGCGCUCAACCAGAAAGUCUGUAAUCAUUUUAAGGGUA [U39A U100A] | 0.55
GUUAACGGUCAUAGGCCAUGGAAACUAGGAGCACCAUUACGCUGCCAGUGAAGAAAUGAACAAAGAAAAUCUGGGCCAGGCAGGCAUCAAAAGAAAUAGCCUUGCGCUCAACCAGAAAGUCUGUAAUCAUUUUAAGGGUA [U39A U100C] | 2.25
